Measured values taken from the supplement of paper PMC5998384.

Tests used:
[1] = test system: HeLa Kyoto; assay: solubility in G1/S (NP-40 vs SDS abundance) (log2 ratio); higher = more soluble; conditions: cell cycle stage: G1/S
[2] = test system: HeLa Kyoto; assay: solubility change mitosis vs G1/S (difference of NP-40 vs SDS log2 ratios) (log2 ratio difference); higher = more soluble in mitosis
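Throughout, for solubility change mitosis vs G1/S (difference of NP-40 vs SDS log2 ratios): synchronized HeLa Kyoto cells (double thymidine block for G1/S, nocodazole release for mitosis), protein amounts in NP-40 versus SDS lysates quantified by mass spectrometry, three biological replicates.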
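Throughout, for solubility in G1/S (NP-40 vs SDS abundance): HeLa Kyoto cells arrested at G1/S by double thymidine block, proteins quantified by TMT10plex mass spectrometry in mild NP-40 versus SDS extracts, three biological replicates.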

MNLQAQPKAQNKRKRCLFGGQEPAPKEQPPPLQPPQQSIRVKEEQYLGHEGPGGAVSTSQPVELPPPSSLALLNSVVYGPERTSAAMLSQQVASVKWPNSVMAPGRGPERGGGGGVSDSSWQQQPGQPPPHSTWNCHSLSLYSATKGSPHPGVGVPTYYNHPEALKREKAGGPQLDRYVRPMMPQKVQLEVGRPQAPLNSFHAAKKPPNQSLPLQPFQLAFGHQVNRQVFRQGPPPPNPVAAFPPQKQQQQQQPQQQQQQQQAALPQMPLFENFYSMPQQPSQQPQDFGLQPAGPLGQSHLAHHSMAPYPFPPNPDMNPELRKALLQDSAPQPALPQVQIPFPRRSRRLSKEGILPPSALDGAGTQPGQEATGNLFLHHWPLQQPPPGSLGQPHPEALGFPLELRESQLLPDGERLAPNGREREAPAMGSEEGMRAVSTGDCGQVLRGGVIQSTRRRRRASQEANLLTLAQKAVELASLQNAKDGSGSEEKRKSVLASTTKCGVEFSEPSLATKRAREDSGMVPLIIPVSVPVRTVDPTEAAQAGGLDEDGKGPEQNPAEHKPSVIVTRRRSTRIPGTDAQAQAEDMNVKLEGEPSVRKPKQRPRPEPLIIPTKAGTFIAPPVYSNITPYQSHLRSPVRLADHPSERSFELPPYTPPPILSPVREGSGLYFNAIISTSTIPAPPPITPKSAHRTLLRTNSAEVTPPVLSVMGEATPVSIEPRINVGSRFQAEIPLMRDRALAAADPHKADLVWQPWEDLESSREKQRQVEDLLTAACSSIFPGAGTNQELALHCLHESRGDILETLNKLLLKKPLRPHNHPLATYHYTGSDQWKMAERKLFNKGIAIYKKDFFLVQKLIQTKTVAQCVEFYYTYKKQVKIGRNGTLTFGDVDTSDEKSAQEEVEVDIKTSQKFPRVPLPRRESPSEERLEPKREVKEPRKEGEEEVPEIQEKEEQEEGRERSRRAAAVKATQTLQANESASDILILRSHESNAPGSAGGQASEKPREGTGKSRRALPFSEKKKKTETFSKTQNQENTFPCKKCGR [ELMSAN1]
solubility in G1/S (log2) [1]: -0.0645
solubility change mitosis (log2) [2]: 0.257

MNRHLCVWLFRHPSLNGYLQCHIQLHSHQFRQIHLDTRLQVFRQNRNCILHLLSKNWSRRYCHQDTKMLWKHKALQKYMENLSKEYQTLEQCLQHIPVNEENRRSLNRRHAELAPLAAIYQEIQETEQAIEELESMCKSLNKQDEKQLQELALEERQTIDQKINMLYNELFQSLVPKEKYDKNDVILEVTAGRTTGGDICQQFTREIFDMYQNYSCYKHWQFELLNYTPADYGGLHHAAARISGDGVYKHLKYEGGIHRVQRIPEVGLSSRMQRIHTGTMSVIVLPQPDEVDVKLDPKDLRIDTFRAKGAGGQHVNKTDSAVRLVHIPTGLVVECQQERSQIKNKEIAFRVLRARLYQQIIEKDKRQQQSARKLQVGTRAQSERIRTYNFTQDRVSDHRIAYEVRDIKEFLCGGKGLDQLIQRLLQSADEEAIAELLDEHLKSAK [MTRF1]
solubility in G1/S (log2) [1]: 0.228
solubility change mitosis (log2) [2]: -0.0209

MNSSSANITYASRKRRKPVQKTVKPIPAEGIKSNPSKRHRDRLNTELDRLASLLPFPQDVINKLDKLSVLRLSVSYLRAKSFFDVALKSSPTERNGGQDNCRAANFREGLNLQEGEFLLQALNGFVLVVTTDALVFYASSTIQDYLGFQQSDVIHQSVYELIHTEDRAEFQRQLHWALNPSQCTESGQGIEEATGLPQTVVCYNPDQIPPENSPLMERCFICRLRCLLDNSSGFLAMNFQGKLKYLHGQKKKGKDGSILPPQLALFAIATPLQPPSILEIRTKNFIFRTKHKLDFTPIGCDAKGRIVLGYTEAELCTRGSGYQFIHAADMLYCAESHIRMIKTGESGMIVFRLLTKNNRWTWVQSNARLLYKNGRPDYIIVTQRPLTDEEGTEHLRKRNTKLPFMFTTGEAVLYEATNPFPAIMDPLPLRTKNGTSGKDSATTSTLSKDSLNPSSLLAAMMQQDESIYLYPASSTSSTAPFENNFFNESMNECRNWQDNTAPMGNDTILKHEQIDQPQDVNSFAGGHPGLFQDSKNSDLYSIMKNLGIDFEDIRHMQNEKFFRNDFSGEVDFRDIDLTDEILTYVQDSLSKSPFIPSDYQQQQSLALNSSCMVQEHLHLEQQQQHHQKQVVVEPQQQLCQKMKHMQVNGMFENWNSNQFVPFNCPQQDPQQYNVFTDLHGISQEFPYKSEMDSMPYTQNFISCNQPVLPQHSKCTELDYPMGSFEPSPYPTTSSLEDFVTCLQLPENQKHGLNPQSAIITPQTCYAGAVSMYQCQPEPQHTHVGQMQYNPVLPGQQAFLNKFQNGVLNETYPAELNNINNTQTTTHLQPLHHPSEARPFPDLTSSGFL [AHR]
solubility in G1/S (log2) [1]: -0.135
solubility change mitosis (log2) [2]: -0.105

MNYPGRGSPRSPEHNGRGGGGGAWELGSDARPAFGGGVCCFEHLPGGDPDDGDVPLALLRGEPGLHLAPGTDDHNHHLALDPCLSDENYDFSSAESGSSLRYYSEGESGGGGSSLSLHPPQQPPLVPTNSGGGGATGGSPGERKRTRLGGPAARHRYEVVTELGPEEVRWFYKEDKKTWKPFIGYDSLRIELAFRTLLQTTGARPQGGDRDGDHVCSPTGPASSSGEDDDEDRACGFCQSTTGHEPEMVELVNIEPVCVRGGLYEVDVTQGECYPVYWNQADKIPVMRGQWFIDGTWQPLEEEESNLIEQEHLNCFRGQQMQENFDIEVSKSIDGKDAVHSFKLSRNHVDWHSVDEVYLYSDATTSKIARTVTQKLGFSKASSSGTRLHRGYVEEATLEDKPSQTTHIVFVVHGIGQKMDQGRIIKNTAMMREAARKIEERHFSNHATHVEFLPVEWRSKLTLDGDTVDSITPDKVRGLRDMLNSSAMDIMYYTSPLYRDELVKGLQQELNRLYSLFCSRNPDFEEKGGKVSIVSHSLGCVITYDIMTGWNPVRLYEQLLQKEEELPDERWMSYEERHLLDELYITKRRLKEIEERLHGLKASSMTQTPALKFKVENFFCMGSPLAVFLALRGIRPGNTGSQDHILPREICNRLLNIFHPTDPVAYRLEPLILKHYSNISPVQIHWYNTSNPLPYEHMKPSFLNPAKEPTSVSENEGISTIPSPVTSPVLSRRHYGESITNIGKASILGAASIGKGLGGMLFSRFGRSSTTQSSETSKDSMEDEKKPVASPSATTVGTQTLPHSSSGFLDSAYFRLQESFFNLPQLLFPENVMQNKDNALVELDHRIDFELREGLVESRYWSAVTSHTAYWSSLDVALFLLTFMYKHEHDDDAKPNLDPI [DDHD1]
solubility in G1/S (log2) [1]: -0.175
solubility change mitosis (log2) [2]: 0.134

MPALACLRRLCRHVSPQAVLFLLFIFCLFSVFISAYYLYGWKRGLEPSADAPEPDCGDPPPVAPSRLLPLKPVQAATPSRTDPLVLVFVESLYSQLGQEVVAILESSRFKYRTEIAPGKGDMPTLTDKGRGRFALIIYENILKYVNLDAWNRELLDKYCVAYGVGIIGFFKANENSLLSAQLKGFPLFLHSNLGLKDCSINPKSPLLYVTRPSEVEKGVLPGEDWTVFQSNHSTYEPVLLAKTRSSESIPHLGADAGLHAALHATVVQDLGLHDGIQRVLFGNNLNFWLHKLVFVDAVAFLTGKRLSLPLDRYILVDIDDIFVGKEGTRMKVEDVKALFDTQNELRAHIPNFTFNLGYSGKFFHTGTNAEDAGDDLLLSYVKEFWWFPHMWSHMQPHLFHNQSVLAEQMALNKKFAVEHGIPTDMGYAVAPHHSGVYPVHVQLYEAWKQVWSIRVTSTEEYPHLKPARYRRGFIHNGIMVLPRQTCGLFTHTIFYNEYPGGSSELDKIINGGELFLTVLLNPISIFMTHLSNYGNDRLGLYTFKHLVRFLHSWTNLRLQTLPPVQLAQKYFQIFSEEKDPLWQDPCEDKRHKDIWSKEKTCDRFPKLLIIGPQKTGTTALYLFLGMHPDLSSNYPSSETFEEIQFFNGHNYHKGIDWYMEFFPIPSNTTSDFYFEKSANYFDSEVAPRRAAALLPKAKVLTILINPADRAYSWYQHQRAHDDPVALKYTFHEVITAGSDASSKLRALQNRCLVPGWYATHIERWLSAYHANQILVLDGKLLRTEPAKVMDMVQKFLGVTNTIDYHKTLAFDPKKGFWCQLLEGGKTKCLGKSKGRKYPEMDLDSRAFLKDYYRDHNIELSKLLYKMGQTLPTWLREDLQNTR [NDST1]
solubility in G1/S (log2) [1]: -0.0442
solubility change mitosis (log2) [2]: -0.0111

MPGVARLPLLLGLLLLPRPGRPLDLADYTYDLAEEDDSEPLNYKDPCKAAAFLGDIALDEEDLRAFQVQQAVDLRRHTARKSSIKAAVPGNTSTPSCQSTNGQPQRGACGRWRGRSRSRRAATSRPERVWPDGVIPFVIGGNFTGSQRAVFRQAMRHWEKHTCVTFLERTDEDSYIVFTYRPCGCCSYVGRRGGGPQAISIGKNCDKFGIVVHELGHVVGFWHEHTRPDRDRHVSIVRENIQPGQEYNFLKMEPQEVESLGETYDFDSIMHYARNTFSRGIFLDTIVPKYEVNGVKPPIGQRTRLSKGDIAQARKLYKCPACGETLQDSTGNFSSPEYPNGYSAHMHCVWRISVTPGEKIILNFTSLDLYRSRLCWYDYVEVRDGFWRKAPLRGRFCGSKLPEPIVSTDSRLWVEFRSSSNWVGKGFFAVYEAICGGDVKKDYGHIQSPNYPDDYRPSKVCIWRIQVSEGFHVGLTFQSFEIERHDSCAYDYLEVRDGHSESSTLIGRYCGYEKPDDIKSTSSRLWLKFVSDGSINKAGFAVNFFKEVDECSRPNRGGCEQRCLNTLGSYKCSCDPGYELAPDKRRCEAACGGFLTKLNGSITSPGWPKEYPPNKNCIWQLVAPTQYRISLQFDFFETEGNDVCKYDFVEVRSGLTADSKLHGKFCGSEKPEVITSQYNNMRVEFKSDNTVSKKGFKAHFFSDKDECSKDNGGCQQDCVNTFGSYECQCRSGFVLHDNKHDCKEAGCDHKVTSTSGTITSPNWPDKYPSKKECTWAISSTPGHRVKLTFMEMDIESQPECAYDHLEVFDGRDAKAPVLGRFCGSKKPEPVLATGSRMFLRFYSDNSVQRKGFQASHATECGGQVRADVKTKDLYSHAQFGDNNYPGGVDCEWVIVAEEGYGVELVFQTFEVEEETDCGYDYMELFDGYDSTAPRLGRYCGSGPPEEVYSAGDSVLVKFHSDDTITKKGFHLRYTSTKFQDTLHSRK [BMP1]
solubility in G1/S (log2) [1]: -0.299
solubility change mitosis (log2) [2]: -0.301
